Here are results for one molecule from PMC11665552, “Talin1 dysfunction is genetically linked to systemic capillary leak syndrome” (JCI Insight, 2024).

For the assay, the target named is T1, WT talin1 R12-R13-DD (murine, UniProt P26039 2138-2541).
T1 construct: talin1, murine, rod domains R12 and R13 and the dimerization domain (DD), residues 2138-2541; also called WT-R12-R13-DD; R12-R13-DD WT
Description: SEC; 100 uM talin and 100 uM Vd1 (1:1 ratio), Superdex 200 Increase 10/300 GL, room temperature (25°C). As to conditions: both partners purified. Background: SEC sorts molecules by how far they enter the pores of the column.

T1 sequence (P26039 2138-2541): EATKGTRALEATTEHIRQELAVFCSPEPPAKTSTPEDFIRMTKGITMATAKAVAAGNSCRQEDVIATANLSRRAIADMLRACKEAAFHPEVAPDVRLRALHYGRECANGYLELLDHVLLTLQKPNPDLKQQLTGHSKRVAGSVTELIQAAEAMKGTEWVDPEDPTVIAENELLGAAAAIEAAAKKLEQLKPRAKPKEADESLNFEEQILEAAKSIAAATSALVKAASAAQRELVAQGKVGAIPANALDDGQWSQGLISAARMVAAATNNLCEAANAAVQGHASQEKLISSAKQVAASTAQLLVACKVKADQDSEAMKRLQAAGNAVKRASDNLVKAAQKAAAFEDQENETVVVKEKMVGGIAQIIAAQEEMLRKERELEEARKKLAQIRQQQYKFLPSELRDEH

B1: talin-binding domain 1 of vinculin (Vd1) (domain or fragment, chicken, UniProt P12003 1-258, looked up)
chain: MPVFHTRTIESILEPVAQQISHLVIMHEEGEVDGKAIPDLTAPVSAVQAAVSNLVRVGKETVQTTEDQILKRDMPPAFIKVENACTKLVRAAQMLQADPYSVPARDYLIDGSRGILSGTSDLLLTFDEAEVRKIIRVCKGILEYLTVAEVVETMEDLVTYTKNLGPGMTKMAKMIDERQQELTHQEHRVMLVNSMNTVKELLPVLISAMKIFVTTKNTKSQGIEEALKNRNFTVEKMSAEINEIIRVLQLTSWDEDAW
notes: vinculin, chicken, domain 1 (Vd1), residues 1-258; expressed from a pET-15b plasmid; also called vinculin Vd1 domain
For B1, the binding result is given as “binds”.
